# Several values for one entry are separate records, joined by “and”; a condition that tells them apart may be missing. Identical values can stand only once.
# T1: recombinant human IL-23 (p19/p40) (human, UniProt Q9NPF7 20-189; P29460 23-328)
# T1 construct: Bought heterodimer (R&D Systems or eBioscience); biotinylated in the alpha-screens; also called hIL-23
# T1 sequence (looked up) 1: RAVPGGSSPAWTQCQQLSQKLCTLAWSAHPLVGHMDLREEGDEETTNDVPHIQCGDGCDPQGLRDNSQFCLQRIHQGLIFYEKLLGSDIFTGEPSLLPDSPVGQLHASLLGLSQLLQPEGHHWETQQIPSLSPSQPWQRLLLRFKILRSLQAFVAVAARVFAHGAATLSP
# T1 sequence (looked up) 2: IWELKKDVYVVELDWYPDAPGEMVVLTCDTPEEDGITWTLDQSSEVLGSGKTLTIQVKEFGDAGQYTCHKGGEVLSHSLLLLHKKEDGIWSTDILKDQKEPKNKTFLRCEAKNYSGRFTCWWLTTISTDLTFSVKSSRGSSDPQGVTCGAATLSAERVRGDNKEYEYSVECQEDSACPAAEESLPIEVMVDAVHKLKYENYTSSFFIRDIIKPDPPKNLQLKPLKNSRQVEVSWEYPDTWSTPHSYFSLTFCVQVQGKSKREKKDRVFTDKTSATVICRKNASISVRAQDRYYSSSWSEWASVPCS
# T2: recombinant human IL-12 (human, UniProt P29459 23-219; P29460 23-328)
# T2 sequence (looked up) 1: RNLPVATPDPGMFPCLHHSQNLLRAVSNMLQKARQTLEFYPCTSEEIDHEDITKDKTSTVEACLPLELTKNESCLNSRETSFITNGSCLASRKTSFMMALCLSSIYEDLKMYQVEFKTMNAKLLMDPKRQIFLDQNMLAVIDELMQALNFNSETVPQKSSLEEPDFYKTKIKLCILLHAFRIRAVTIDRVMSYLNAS
# T2 sequence (looked up) 2: T1 sequence (looked up) 2
# B1: P23IL81A12v4 (VHH)
# VHH: EVQLLESGGGLVQPGGSLRLSCAASGRTLSSYAMGWFRQAPGKGREFVSRISQGGTAIYYADSVKGRFTISRDNSKNTLYLQMNSLRPEDTAVYYCAKDPSPYYRGSAYLLSGSYDSWGQGTLVTVSS
# notes: Final humanization variant of 81A12
# B2: P23IL-23E3 (VHH)
# VHH: EVQLVESGGELVQAGGSLRLSCAASGSIVSISAMAWYRQAPGKQRERVATITRGGTPDYADSAKDRFTISRDNAKNTVSLQMNNLKPEDTAVYYCKAALRTPTHDYNYYDYWGQGTQVTVSS
# notes: p40+ Nanobody
# B3: P23IL-22E11 (VHH)
# VHH: EVQLVESGGGLVQAGGSLRLSCAASGRTFSWSAVGWFRQAPGKEREFVAAIRWSGGSPYYADSVKDRFTISRDNAKNTVYLQMNSLRPEDTAVYLCGETSLFPTSRGSHYDTWGQGTQVTVSS
# B4: P23IL-22D7 (VHH)
# VHH: EVQLVESGGGLVQAGGSLRLSCASSGRTFSIYARGWFRQAPGKEREFVAAIRSGLTTYSDSVKGRFTISRDIAKNTVFLQMNSLKSEDTAVYYCAAAVNYFTDFTDYSKRDSYDYWGQGTQVTVSS
# notes: p40+ Nanobody
# B5: P23IL3G10 (VHH)
# VHH: EVQLVESGGGVVQAGESLRLSCAASGYNVKDYEMGWFRQAPGMEREFAAAISWRGSSTYYADSVKGRFTISRDNAKNTVYLQMSSLKPEDTAVYYCAAGRLYPSSRSRDYDYWGQGTQVTVSS
# notes: p40+ Nanobody; c-myc, His6-tagged
# B6: P23IL-23H3 (VHH)
# VHH: EVQLVESGGGLVQAGDSLRLSCAASGRSFSNDAMGWFRQAPGKERSFVAAINWSGELTGYAGSVKGRFTISRDGVENMVFLQMNSLVPEDTGVYYCAAVEGRDYYRGAQYYDYWGQGTQVTVSS
# notes: p40+ Nanobody
# B7: P23IL3B8 (VHH)
# VHH: EVQLVESGGGLVQPGGSLRLSCAASGFTFSSSVMFWLRQAPGKGLEWLSTIKPTGSTIYPGSGKGRFTISRDNAKNTLYLQINNLKPEDTALYYCARDIGGTVRGQGTQVTVSS
# notes: as for B5
# B8: P23IL3C1 (VHH)
# VHH: EVQLVESGGGSVQAGGSLRLSCKVSGIMFSDKGMGWFRQAPGKERETVAATNWSGGSTYYADSVKGRFTISRDNYKNTLHLQMASLKPEDTGIYYCAAAGDSWNSRRIEDYDYWGQGTPVTVSS
# notes: p40+ Nanobody
# B9: P23IL119A3-9GS-81G2 (bispecific antibody)
# chain: EVQLVESGGGLVQAGGSLRLSCAASGRIFSLPASGNIFNLLTIAWHRQAPGMQRELVATINSGSRTNYADSVKGRFTISRDNAQKTVYLQMNNLKPEDTAVYYCQTSGSGSPNFWGQGTQVTVSSGGGGSGGGSEVQLVESGGGLVQPGGSLRLSCIASGLPFSTKSMGWFRQAPGKEREFVARISPGGTSRYYGDFVKGRFAISRDNAKNTTWLQMNSLKAEDTAVYYCASGERSTYIGSNYYRTNEYDYWGTGTQVTVSS
# B10: P23IL-121A2-9GS-81G2 (bispecific antibody)
# chain: EVQLVESGGGLVQAGGSLRLSCAASGSIFNFNYMGWFRQAPGKEREFVAAIRWSGSSTYYADSVKGRFTISRDDAKNTVALQMNSLKPEDTAIYYCALRKGIPYSTSDRVIKGVNDYDYWGQGTQVTVSSGGGGSGGGSEVQLVESGGGLVQPGGSLRLSCIASGLPFSTKSMGWFRQAPGKEREFVARISPGGTSRYYGDFVKGRFAISRDNAKNTTWLQMNSLKAEDTAVYYCASGERSTYIGSNYYRTNEYDYWGTGTQVTVSS
# B11: P23IL119A3-35GS-81A12 (bispecific antibody)
# chain: EVQLVESGGGLVQAGGSLRLSCAASGRIFSLPASGNIFNLLTIAWHRQAPGMQRELVATINSGSRTNYADSVKGRFTISRDNAQKTVYLQMNNLKPEDTAVYYCQTSGSGSPNFWGQGTQVTVSSGGGGSGGGGSGGGGSGGGGSGGGGSGGGGSGGGGSEVQLVESGGGLVQAGGSLRLSCAASGRTLSSYAMGWFRQAPGKEREFVARISQGGTAIYYADSVKGRFTISRDNAKNTVYLQMNSLKPEDTAVYYCAKDPSPYYRGSAYLLSGSYDSWGQGTQVTVSS
# B12: P23IL 84G12 (VHH)
# VHH: EVQLVESGGRLVQAGGSLRLSCAASGRTFDSNPMGWFRQAPGKKREFVAIISGNGGITNYANSVKGRFTISRDNAKNTIYLQMNSLKPEDTAVYYCAASGLYGSGSVYDLMYDYWGQGTQVTVSS
# notes: also called P23ILp40-PMP84G12
# B13: P23IL 3F11 (VHH)
# VHH: EVQLVESGGGLVQAGGSLRLSCAASGSIFSINAMGWFRQAPGKERQFVAAINWSTGSTYYSDSVKGRFTISRDNAKNTVYLQMNSLKPEDTAVYFCASGYLFPSSRGSQYDYWGQGTQVTVSS
# notes: as for B5
# B14: P23IL81E10 (VHH)
# VHH: EVQLVESGGGLVQAGGSLRLSCVASGRTFNTYGMGWFRQAPGKEREFVAANNWSGGATSYADSVKGRFTISRDNAKNTVFLQMNTLKPEDTAVYYCAAADRGGGWLVVRENDYDYWGQGTQVTVSS
# notes: p40+ Nanobody
# B15: P23IL 21C4 (VHH)
# VHH: EVQLVESGGGLVQAGGSLRLSCAASGRTFSGYDMGWFRQAPGKEREFVAQISRHNSNTYYADAVKGRFTISRDNAKNTVSLQMNSLKPEDTAVYYCAIGSLFPSSRERDYDYWGQGTQVTVSS
# notes: as for B5
# B16: P23IL 84A12 (VHH)
# VHH: EVQLVESGGGVVQAGESLRLSCAASGRSFSDYEMGWFRQAPGTEREFVASINRRGSSTFYADSVKGRFTISRDNTKNTVYLQMSSLKPEDTAVYLCAAGWLFPSSRSRDYDYWGQGTQVTVSS
# notes: as for B5
# B17: P23IL 81A1 (VHH)
# VHH: EVQLVESGGGLVQTGGSLRLSCAASVINFRLADMDWYRQALGKQRELVASISTGYRTNYADFVKGRFTISRDNAKNTVYLQMDSLKPEDTAVYYCAARDLRGLRVDYWGQGTQVTVSS
# B18: P23IL80D10 (VHH)
# VHH: EVQLVESGGGLVQAGGSLRLSCAASGRTFEGNPMGWFRQASGKKREFVASIDWSGGITSYADSVKGRFTISRDNAKNTVYLQMNSLKPEDTAVYYCAASARFGSGSYYDLMYDYWGQGTQVTVSS
# notes: p40- Nanobody
# B19: P23IL 20F2 (VHH)
# VHH: EVQLVESGGGLVQPGGSLRLSCAASGFSLDYTAIGWFRQAPGKEREVVSCFTSVPGSTYHADSVKGRFTIASDNAKNTVYLQMNDLKPEDTAVYYCATDAQTYYSGSYCGRTPQEYPYWGQGTQVTVSS
# notes: p40- Nanobody
# Biological target: T1, recombinant human IL-23 (p19/p40)
# Test: SPR Biacore, hIL-23
Kd [nM],koff [s⁻¹],kon [M⁻¹ s⁻¹],Binder
0.33,0.0002,600000,B1

# Biological target: T1, recombinant human IL-23 (p19/p40)
# Test: cell-based or functional assay
"IC50, mouse splenocyte assay (mIL-22) [nM]","IC50, mouse splenocyte assay (mIL-22); nc = blocking not complete [nM]",Binder
0.935,,B2
0.186,,B3
0.116,,B4
2.33,,B5
0.79,,B6
0.408,,B7
,0.51,B8

# Biological target: cynomolgus IL-23 (cynomolgus)
# Test: cell-based or functional assay
"IC50, mouse splenocyte assay (mIL-22) [nM]","IC50, mouse splenocyte assay (mIL-22); nc = blocking not complete [nM]",Binder
5.46,,B2
1.27,,B3
0.705,,B4
9.45,,B5
32.5,,B6
1.79,,B7
,0.517,B8

# Biological target: T2, recombinant human IL-12
# Test: cell-based or functional assay
"IC50, PHA blast proliferation, 1 pM hIL-12; nc = no complete blocking [pM]","IC50, PHA blast proliferation, 1 pM hIL-12 [pM]",Binder
1730,,B2
,159,B3
,116,B4
,194,B5
,174,B6
1500,,B7

# Biological target: T1, recombinant human IL-23 (p19/p40)
# Test: cell-based or functional assay
# Remark: another data set of the same source
row,"IC50, splenocyte assay, 19 pM hIL-23 [pM]",Binder
1,1990,B9
2,740,B10

# Biological target: T1, recombinant human IL-23 (p19/p40)
# Test: cell-based or functional assay
# Remark: another data set of the same source
row,"IC50, splenocyte assay, 19 pM hIL-23 [pM]",Binder
1,7,B11

# Biological target: cynomolgus IL-23 (cynomolgus)
# Test: cell-based or functional assay
# Remark: another data set of the same source
row,"IC50, splenocyte assay, 3.8 pM cIL-23 [pM]",Binder
1,5,B11

# Biological target: T1, recombinant human IL-23 (p19/p40)
# Test: SPR Biacore, hIL-23 on chip
# Description: (§1) Nanobody binding was assessed at one concentration (100 nM). Each Nanobody was injected for 4 minutes at a flow rate of 45 μl/min to allow binding to chip-bound antigen. Next, binding buffer without Nanobody was sent over the chip at the same flow rate to allow spontaneous dissociation of bound Nanobody.
row,koff [s⁻¹],Binder
1,0.00018,B2
2,0.00023,B3
3,0.00029,B12
4,0.00146,B13
5,0.00017,B4
6,0.00197,B5
7,0.00263,B14
8,0.00051,B15
9,0.0011,B6
10,0.0035,B7
11,0.0016,B16
12,0.000294,B8

# Biological target: T1, recombinant human IL-23 (p19/p40)
# Test: SPR Biacore, hIL-23 on chip
# Remark: another data set of the same source
# Description: as §1
row,koff [s⁻¹],Binder
1,0.00059,B17
2,9.7e-05,B18
3,0.00054,B19

# Biological target: T3, cynomolgus IL-23 (cynomolgus)
# T3 construct: also called cyno IL-23; cIL-23
# Test: SPR Biacore, cyno IL-23 on chip
row,koff,Binder
1,0.0012 s⁻¹ and 0.0025 s⁻¹,B2
2,0.00023 s⁻¹,B3
3,7e-05 s⁻¹,B12
4,0.00023 s⁻¹,B4
5,0.002 s⁻¹ and 0.004 s⁻¹,B5
6,0.00132 s⁻¹ and 0.0012 s⁻¹,B14
7,0.00067 s⁻¹,B6
8,5.9e-05 s⁻¹,B8

# Biological target: T3, cynomolgus IL-23
# Test: SPR Biacore, cyno IL-23 on chip
# Remark: another data set of the same source
row,koff,Binder
1,0.012 s⁻¹,B17
2,0.000105 s⁻¹ and 7.9e-05 s⁻¹,B18

# Biological target: T2, recombinant human IL-12
# Test: alpha-screen, hIL-12/IL12Rbeta1-Fc
# Description: Human IL-23R-Fc chimera and hIL12Rbeta1-Fc chimera (R&D Systems, Minneapolis, Minn., US) were coupled to acceptor beads according to manufacturer instructions (Perkin Elmer, Waltham, Mass., US).
# To this mixture, the IL12Rbeta1 acceptor beads and the streptavidin donor beads were added and further incubated for 1 hour at RT.
row,IC50 [nM],Binder
1,1.2,B2
2,1.3,B3
3,1.9,B4
4,0.9,B5
5,23,B14
6,1.63,B15
7,1.2,B6
8,0.35,B7
9,0.96,B16
10,1,B8

# Source: patent US20110053865A1 (Ablynx, published 2011)
